Test [1] relates to primary BCE cells. Kind of test: dose response study Pep2, chemotaxis of BCE cells. In kind it is cell-based, bovine. To be noted: 20, 50 or 100 ng/ml, FGF-2 10 ng/ml, Zn2+-acetate. On the procedure: A migration assay was performed in a modified Boyden chamber as described earlier (Auerbach et al., 1991) using micropore polycarbonate filters (8 μm thick, 8 μm pore) coated with type-1 collagen solution at 100 μg/ml (Vitrogen 100, Collagen Corp). BCE Cells were trypsinised and resuspended at 7.5×10^5 cells/ml in Dulbecco's modified essential medium (Invitrogen) containing 0.25% BSA and Trasylol at 1000 KIE. The cell suspension was added in the upper chamber and FGF-2 (10 ng/ml), and/or peptide 2 (20, 50 or 100 ng/ml) in medium containing 0.25% BSA were added to the lower chamber. The peptides were dissolved in PBS containing a 10-fold molar excess (Zn:peptide) of Zn^2+-acetate. After 5 h at 37° C., cells that had migrated through the filter were stained with Giemsa and counted using an the Easy Image Analysis software. All samples were analysed in at least six wells for each treatment and at several separate occasions.

Test [2] has as its system primary BCE cells. Kind of test: comparative study pep2/pep3, chemotaxis. In kind it is cell-based, bovine. The settings on record: 50 ng/ml peptide, FGF-2 10 ng/ml, Zn2+-acetate. On the procedure: Primary endothelial cells were starved over night in 0.5% normal calf serum. A migration assay was performed in a modified Boyden chamber as described earlier (Auerbach et al., 1991) using micropore polycarbonate filters (8 μm thick, 8 μm pore) coated with type-1 collagen solution at 100 μg/ml (Vitrogen 100, Collagen Corp). Cells were trypsinized and resuspended at 7.5×10^5 cells/ml in Dulbecco's modified essential medium (Invitrogen) containing 0.25% BSA and Trasylol at 1000 KIE. The cell suspension was added in the upper chamber and FGF-2 (10 ng/ml), HRGP (100 ng/ml), peptide 2 or 3 (50 ng/ml) in medium containing 0.25% BSA were added to the lower chamber. The peptides were dissolved in PBS containing a 10-fold molar excess (Zn:peptide) of Zn^2+-acetate. After 5 h at 37° C., cells that had migrated through the filter were stained with Giemsa and counted using the Easy Image Analysis software. All samples were analyzed in at least six wells for each treatment. Results of the study are illustrated in FIG. 7.

Test [3] relates to T241 fibrosarcoma cells. Kind of test: animal study Pep2, fibrosarcoma tumour growth. To be noted: 5 mg/kg/day s.c. daily, mice bearing fibrosarcoma. In kind it is in vivo. As for the experimental part:
Tumour study: Female, 5 week old, C57BL6/J mice (Mollegard/Bomhultgard, Denmark) were injected with 0.5×10^6 T241 fibrosarcoma cells subcutaneously (s.c.) into the left flank. Animals carrying palpable tumours were randomised (n=5-10 animals/treatment group) and received treatment with vehicle (Zn-acetate in NaCl), 5 mg/kg/day of HIS1 (=full-length HRGP) or Pep2, in a volume of 100 microliters, given as s.c. injections daily, in the right flank. The tumours were measured with a caliper once a day, in a blind procedure, and volumes were calculated by the formula […]×width^2×length. When the tumours reached the upper limit of 2 cm^3, the mice were sacrificed. The animals were anesthetised with isoflurane (Forene; Abbott) during all manipulations.

The subject of test [4] is chicken chorioallantoic membrane (CAM). Kind of test: chicken chorioallantoic membrane (CAM) angiogenesis assay. In kind it is in vivo. The settings on record: FGF-2 or VEGF-A 0.2 mg per filter, HRGP 3 mg per filter, three days. On the procedure: The effect of HRGP on anglogenesis was tested in the chicken chorioallantoic membrane (CAM) assay.
The conditions for the chorioallantoic membrane (CAM) assay followed essentially a previously described procedure (Friedlander et al (1995), Dixelius et al, (2000)). FGF-2 (Boehringer Mannheim) and VEGF-A (Peprotech) was used at 0.2 mg per filter and purified pHRGP or rHRGP at 3 mg per filter. The treated CAM's were inspected in a light microscope and the score, from 0 (low) to 3 (high) was based on the number of vessel branch points. Average values for 5-6 embryos were recorded.
A filter disc soaked in vehicle or growth factor, with or without HRGP, was placed on top of the CAM in the vicinity of a large vessel and incubated for three days. Treatment of the CAM with growth factors, such as FGF-2, stimulated angiogenesis (FIG. 1C; Table 1).

In test [5] the test system is primary BCE cells. Kind of test: chemotaxis (migration) assay in modified Boyden chamber, BCE cells. In kind it is cell-based, bovine. On the procedure:
(§1) The porcine aortic endothelial (PAE) cell line overexpressing FGF receptor-1 (FGFR-1) (Wennström et al 1992) was cultured in Ham's F12/10% fetal bovine serum (FCS) and NIH 3T3 murine fibroblasts were cultured in Dulbecco's modified medium (DMEM)/10% newborn calf serum (NCS). F12, DMEM and serum were bought from Life Technologies. Primary bovine adrenal cortex capillary endothelial (BCE) cells were cultured on gelatin-coated dishes in DMEM/10% NCS and 2 ng/ml FGF-2 (Boehringer Mannheim). For chemotaxis assays, both PAE and NIH 3T3 cells were serum-starved over night in 0.1% BSA and BCE cells in 0.5% NCS. Human embryonic kidney (HEK) 293-EBNA cells were cultured in DMEM/10% FCS. Approximately every second month they were given 0.25 mg/ml G418 (Calbiochem) to ensure positive selection of the EBNA-1 expressing cells.
A migration assay was performed in a modified Boyden chamber as described earlier (Auerbach et al., 1991) using micropore polycarbonate filters (8 μm thick, 8 μm pore) coated with type-1 collagen solution at 100 μg/ml (Vitrogen 100, Collagen Corp). BCE, PAE/FGFR-1 or NIH 3T3 cells were preincubated or not with HRGP (100 ng/ml) for 30 min, trypsinised and resuspended at a concentration of 7.5×10^5 cells/ml in Dulbecco's modified essential medium (Invitrogen) containing 0.25% BSA and Trasylol at 1000 KIE. FGF-2 and VEGF-A was used at 5 ng/ml, HRGP and the protein C inhibitor (PCI) at 100 ng/ml and BSA at 0.25%. After 5 h at 37° C., migrated cells were stained with Giemsa and counted using an image analysis software (Easy Image Analysis) from Tekno Optik AB, Sweden. All samples were analysed in at least six parallel wells for each treatment.

Test [6] concerns NIH 3T3 murine fibroblasts. Description: chemotaxis assay in modified Boyden chamber, NIH 3T3 fibroblasts. In kind it is cell-based. The settings on record: 100 ng/ml HRGP. On the procedure: as §1
A migration assay was performed in a modified Boyden chamber as described earlier (Auerbach et al., 1991) using micropore polycarbonate filters (8 μm thick, 8 μm pore) coated with type-1 collagen solution at 100 μg/ml (Vitrogen 100, Collagen Corp). […] After 5 h at 37° C., migrated cells were stained with Giemsa and counted using an image analysis software (Easy Image Analysis) from Tekno Optik AB, Sweden. All samples were analysed in at least six parallel wells for each treatment.

On to “Pep2: amino acid subfragment of 35 amino acids, amino acids 330-364 of mature human HRGP (DLHPHKHHSHEQHPHGHHPHAHHPHEHDTHRQHPH; listed as Homo sapiens)”, for which the “FGF-2-induced chemotaxis of primary BCE cells, dose response” value in test [1] is listed as “dose-dependently inhibited”. Besides, the “FGF-2-induced chemotaxis of primary BCE cells” value in test [2] was “inhibited”. Moreover, in test [3], the “tumour growth (tumour volume)” value is “inhibits tumor growth”.

B1: rHRGP: recombinant HRGP produced in HEK-293-EBNA cells without a His-tag (protein)
chain: VSPTDCSAVEPEAEKALDLINKRRRDGYLFQLLRIADAHLDRVENTTVYYLVLDVQESDCSVLSRKYWNDCEPPDSRRPSEIVIGQCKVIATRHSHESQDLRVIDFNCTTSSVSSALANTKDSPVLIDFFEDTERYRKQANKALEKYKEENDDFASFRVDRIERVARVRGGEGTGYFVDFSVRNCPRHHFPRHPNVFGFCRADLFYDVEALDLESPKNLVINCEVFDPQEHENINGVPPHLGHPFHWGGHERSSTTKPPFKPHGSRDHHHPHKPHEHGPPPPPDERDHSHGPPLPQGPPPLLPMSCSSCQHATFGTNGAQRHSHNNNSSDLHPHKHHSHEQHPHGHHPHAHHPHEHDTHRQHPHGHHPHGHHPHGHHPHGHHPHGHHPHCHDFQDYGPCDPPPHNQGHCCHGHGPPPGHLRRRGPGKGPRPFHCRQIGSVYRLPPLRKGEVLPLPEANFPSFPLPHHKHPLKPDNQPFPQSVSESCPGKFKSGFPQVSMFFTHTFPK
For the molecule B1, in test [4], the “growth factor-induced CAM angiogenesis (newly formed vessels)” value was “The same result was obtained”. Moreover, the “FCS-induced chemotaxis of BCE cells” value in test [5] (100 ng/ml HRGP) was “not inhibited”. Also, in test [5] (100 ng/ml HRGP, VEGF-A 5 ng/ml), the “VEGF-A-induced chemotaxis of BCE cells” value is “attenuated”. Further, in test [5] (100 ng/ml protein, FGF-2 5 ng/ml, 5 h), the “FGF-2-induced chemotaxis of BCE cells” value was “completely blocked”. Also, the “FGF-2-induced chemotaxis of NIH 3T3 murine fibroblasts” value in test [6] is reported as “not affected”.

The values above are taken from patent publication US7662388B2, “Endogenous peptide and active subfragments thereof” (Innoventus Project AB, priority 2003, dated 2010).
